# Legend:
# Cx43CT [1] = target: T1, Cx43CT (Rattus norvegicus, UniProt P08050); test: Surface Plasmon Resonance (SPR) binding of synthetic peptides to immobilised recombinant Cx43CT; settings: for SPR binding to Cx43CT (in words): Cx43CT bound to carboxymethyl dextran matrix
# T1 construct: GST (N, cleaved yes); made in house; host or cells: E. coli BL-21
# From the text: Recombinant Cx43CT was produced as described in Duffy et al., “pH-Dependent Intramolecular Binding and Structure Involving Cx43 Cytoplasmic Domains,” J. Biol. Chem. 277(39):36706-36714 (2002), which is hereby incorporated by reference in its entirety. Briefly, cDNA derived from rat Cx43 was inserted into pGEX-6P-2 (Amersham) and expressed in E. coli (BL-21). The resultant GST-fusion protein was cleaved from the GST PreScission Protease® (Amersham Biosciences). The recombinant product after cleavage contained the sequence 255-382 of rCx43 preceded by four additional amino acids (GPLG). Protein concentration was measured using the Bio-Rad DC Protein Assay. Protein purity was assessed by SDS-PAGE.
# Recombinant Cx43CT was covalently bound to a carboxylmethyl dextran matrix (Salamon et al., “Surface Plasmon Resonance Spectroscopy as a Tool for Investigating the Biochemical and Biophysical Properties of Membrane Protein Systems. II: Applications to Biological Systems,” Biochim. Biophys. Acta 1331(2):131-152 (1997), which is hereby incorporated by reference in its entirety). Specific peptides were presented and, when feasible, dissociation constants (KD) were calculated from the time course of binding and unbinding of the ligand, using a 1:1 (Langmuir) association and dissociation kinetic model (Biacore software package). In both phases (association and dissociation), the first 5-8 seconds of recording were not included in the fit, to avoid artifacts resulting from peptide distribution within the flow cells (Lang et al., “Surface Plasmon Resonance as a Method to Study the Kinetics and Amplitude of Protein-protein Binding,” in PRACTICAL METHODS IN CARDIOVASCULAR RESEARCH 936-947 (Stefan Dhein, Friedrich Wilhelm Mohr & Mario Delmar eds., 2005), which is hereby incorporated by reference in its entirety).
# Phage display allows for the rapid screening of thousands of peptides, but the characteristics of binding cannot be properly defined. Furthermore, the peptides are part of a capsid protein, which may affect the ability of the peptide to properly interact with the target protein. Therefore, some of the peptides identified by the phage screening were selected to, using SPR, further characterize their ability to bind Cx43CT. Recombinant Cx43CT was covalently bound to a carboxymethyl dextran matrix and synthetic peptides presented for binding. A total of six 12-mer peptides from the non-biased screening (peptides labeled RXP1 to RXP6 in Table 1) and 5 peptides from the biased screening (labeled RXP-A to RXP-E in Table 3) were tested. […] Peptide RXP4 (SEQ ID NO:15) caused the largest deflection in SPR signal. RXP4 (250 μM) was added at time “zero.” Washout was initiated after two minutes of exposure. […] Higher concentrations of the peptide were tested but an asymptotic maximum response could not be detected. In addition, dissociation rates were too fast to reliably use them to calculate the kinetics of binding.
# A different result emerged from the testing of the doublets. […] The transitions were well-fit by exponential functions and the rates of association and dissociation were used as described in Example 4 to estimate the kinetic parameters. A full range of concentrations was tested in three separate occasions and at two different pHs of the solvent (6.5 and 7.4). […] Adhes. 8(4-6):219-223 (2001), which is hereby incorporated by reference in its entirety), and that measured for the binding of Aquaporin-0 to Cx45.6 (Yin et al., “The Development-associated Cleavage of Lens Connexin 45.6 by Caspase-3-like Protease is Regulated by Casein Kinase II-mediated Phosphorylation,” J. Biol. Chem. 276(37):34567-34572 (2001), which is hereby incorporated by reference in its entirety).
# The peptides were tested for binding to the carboxyl terminal domain of Cx43 using Surface Plasmon Resonance (“SPR”). […]
# Cx43CT [2] = target: T1, Cx43CT; test: Biased (XXXXRXPXXXX) phage display screening against Cx43CT; format: binding; settings: for Total Frequency (%): all three runs, 402 inserts sequenced; for Frequency Run 2(%) / Frequency Run 1 (%): binding step at pH 6.5; for Frequency Run 2(%): 119 inserts sequenced; for Frequency Run 1 (%): 120 inserts sequenced; for Frequency Run 3 (%): binding step at pH 7.4, 163 inserts sequenced
# Method: A “library” of bacteriophage, displaying ˜[…] of 2.7×10^9 random 12-mer peptides (Ph.D.-12™ Phage display peptide library kit; New England BioLabs Inc.) was utilized. Wells in 24-well plates were coated with 15 μg of recombinant CT and blocked with 5 mg/ml BSA. After removing the unbound viruses by washing with Tris buffered saline containing 0.5% tween-20 (TBS-T), low affinity binders were eluted with a solution of TBS-containing Cx43CT at a concentration of 100 μg/ml. High affinity binders were recovered by overlaying the well with a culture of E. coli, to allow the tightly bound phage to infect the bacteria. This culture was amplified and the virus was precipitated with PEG. The amplified product was used for the subsequent round of panning. All steps were conducted at pH 6.5 unless otherwise indicated.
# After three rounds of selection and amplification, the phage recovered from the last round of binding were grown on a lawn of E. coli for plaque purification. Each plaque, representing a single clone, was picked and amplified. The phage were isolated and analyzed by DNA sequencing.
# The Ph.D. Peptide Display Cloning System (New England BioLabs Inc.) was used to create a biased phage display library of sequence XXXXRXPXXXX, where X is any amino acid flanking an arginine and a proline with an additional random residue at the center. The randomized peptides were followed by a Gly-Gly-Gly-Ser (SEQ ID NO:2) spacer. The library was cloned into M13 phage. These phage were analyzed for titer and sequence prior to screening for Cx43CT binding as described above.
# The RXP motif was not detected in phage that bound to streptavidin. The motif occurred in different positions within the 12-mer peptide, thus preventing proper alignments to determine the frequency of other amino acids at specific positions relative to the RXP. To overcome this limitation and to search for peptides with higher binding affinity (see Example 10), a biased phage display library was generated where the RXP motif was forced to the center of the sequence, flanked at each side by 4 randomized amino acids. Sixty clones containing an insert (out of an estimated 3-4×10^4 total clones in the library) were chosen at random for sequencing prior to exposure of the library to Cx43CT. All inserts coded for an 11-mer peptide with the RXP motif in the appropriate location. In three independent runs, the same library was presented to Cx43CT. The binding step was carried out at pH 6.5 in two of the runs (run 1 and 2) and at pH 7.4 in one additional run (run 3). The total number of phage plaques containing a full coding insert that were recovered after the binding step were 120, 119 and 163 for runs 1, 2 and 3, respectively. […] These inserts may be consequent to incomplete restriction enzyme digestion as well as possible residual activity of the Klenow polymerase used in second strand production. The combination of these two factors would result in blunt ends that subsequently ligated. […] Furthermore, five specific peptides were recovered from all three runs and represented a large fraction of the repeats observed within the same run (see Table 2).
# Cx43CT [3] = target: T1, Cx43CT; test: NMR 15N-HSQC resonance shifts of 15N-Cx43CT in presence of peptide; format: binding; settings: PBS pH 5.8, peptide to Cx43CT about 2.4 mM to 0.8 mM (3:1)
# Method: All NMR data were acquired on a Varian INOVA 600-MHz NMR spectrometer using a cryoprobe (MacUra & Ernst, “Elucidation of Cross Relaxation in Liquids by Two-dimensional NMR Spectroscopy,” Mol. Phys. 41:95-117 (1980), which is hereby incorporated by reference in its entirety); the sample temperature was maintained at 7° C. Gradient-enhanced two-dimensional ^1H-^15N HSQC experiments (Kay et al., “Pure Absorption Gradient Enhanced Heteronuclear Single Quantum Correlation Spectroscopy with Improved Sensitivity,” J. Am. Chem. Soc. 114:10663-10665 (1992), which is hereby incorporated by reference in its entirety) were used to observe all backbone amide resonances in ^15N-labeled Cx43CT. Data were acquired with 1024 complex points in t2 and 128 complex points in t1. Sweep widths were 10,000 Hz in the proton dimension and 2,500 Hz in the nitrogen dimension. The concentration of RXP peptide to Cx43CT was approximately 2.4 mM to 0.8 mM, respectively (3:1 ratio). All NMR data were processed using NMRPipe (Delaglio et al., “NMRPipe: A Multidimensional Spectral Processing System Based on UNIX Pipes,” J. Biomol. NMR 6(3):277-293 (1995), which is hereby incorporated by reference in its entirety) and analyzed using NMRView (Sorgen, “How to Solve a Protein Structure by Nuclear Magnetic Resonance The Connexin43 Carboxyl Terminal Domain,” in PRACTICAL METHODS IN CARDIOVASCULAR RESEARCH 948-958 (Stefan Dhein, Friedrich Wilhelm Mohr & Mario Delmar eds., 2005), which is hereby incorporated by reference in its entirety).
# Peptides RXP1, RXP4 and RXP-E were tested for their ability to modify the structure of Cx43CT. The peptides were diluted in PBS (pH 5.8) containing ^15N-Cx43CT, and ^15N-HSQC spectra were acquired. Results for RXP4 and RXP-E are shown in FIGS. 4A (RXP4) and 4B (RXP-E). The specific resonance peaks that correspond to each amino acid in the Cx43CT sequence have been assigned (Sorgen et al., “Sequence-specific Resonance Assignment of the Carboxyl Terminal Domain of Connexin43,” J. Biomol. NMR 23(3):245-246 (2002), which is hereby incorporated by reference in its entirety). […]
# T1 sequence (P08050 255-382): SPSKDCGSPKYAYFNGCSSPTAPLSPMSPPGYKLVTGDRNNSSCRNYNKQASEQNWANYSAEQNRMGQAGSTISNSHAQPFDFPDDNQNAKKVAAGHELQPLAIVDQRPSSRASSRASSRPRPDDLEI
Substance,Response (SPR amplitude) (Cx43CT [1]; peptide concentration 1.0 mM) [arbitrary units],Total Frequency (%) (Cx43CT [2]),Frequency Run 2(%) (Cx43CT [2]),Frequency Run 1 (%) (Cx43CT [2]),Frequency Run 3 (%) (Cx43CT [2]),also measured
"AcRNP-NH2 (Ac-Arg-Asn-Pro-NH2) [Peptide 2502, small RXP peptide]",4.6,–,–,–,–,–
AcRNPRNP-NH2 (Ac-RNPRNP-NH2) [Peptide 2501],24.8,–,–,–,–,Response (SPR amplitude) (Cx43CT [1]; peptide concentration 500 μM): 14.4 arbitrary units
AcRRKP-NH2 (Ac-RRKP-NH2) [Peptide 2504],46.5,–,–,–,–,–
AcRRKPRRKP-NH2 (Ac-RRKPRRKP-NH2) [Peptide 2503],294.7,–,–,–,–,Response (SPR amplitude) (Cx43CT [1]; peptide concentration 25 μM): 27.5 arbitrary units; Response (SPR amplitude) (Cx43CT [1]; peptide concentration 100 μM): 80.6 arbitrary units; Response (SPR amplitude) (Cx43CT [1]; peptide concentration 250 μM): 147.0 arbitrary units; Response (SPR amplitude) (Cx43CT [1]; peptide concentration 500 μM): 214.8 arbitrary units
AcRRNP-NH2 (Ac-RRNP-NH2) [Peptide 2505],34.9,–,–,–,–,–
DVPGRDPGYIKGGGSAHARVPFYSHSLNRNRKPSLYQ (RXP-containing peptide) [RXP-A],–,40,64.7,20.8,36.2,–
EIQPRSPLMFSGGGSAHARVPFYSHSAKEARWPRAHR (RXP-containing peptide) [RXP-B],–,8.2,2.5,6.7,13.5,–
G H L H L R V P T L K M (GHLHLRVPTLKM; RXP-containing peptide) [RXP1],–,–,–,–,–,"Shift of Cx43CT resonance peaks (15N-HSQC) (Cx43CT [3]): no resonance shifts were observed; SPR binding to Cx43CT (in words) (Cx43CT [1]): detectable, pH-dependent binding; SPR binding to Cx43CT (in words) (Cx43CT [1]; listed as RXP-1): very weak (almost undetectable) interaction"
GIAAREPNSHDGGGSAHARVPFYSHSRDLWRKPAKSL (RXP-containing peptide),–,15.2,11.8,12.5,19.6,–
R R P P Y R V P R K L F (RRPPYRVPPKLF) [RXP4],–,–,–,–,–,"Shift of Cx43CT resonance peaks (15N-HSQC) (Cx43CT [3]): strongly affected the resonance peaks of residues R376, D378, and D379; Shift of Cx43CT resonance peaks (15N-HSQC) (Cx43CT [3]; listed as RXP-4): caused a shift in the position of residues 376, 378 and 379, as well as residues 343-346; SPR binding to Cx43CT (in words) (Cx43CT [1]): too weak to allow for proper calculation of kinetic values; SPR binding to Cx43CT (in words) (Cx43CT [1]; listed as RXP-4): weak intermolecular binding"
WEEPRRPFTMSGGGSAETHARVPFYSHSPMRHRLPGVHL (RXP-containing peptide) [RXP-D],–,6,0.8,16.7,1.8,–

# Reference: patent US20090075291A1, “PEPTIDE-BASED REGULATION OF GAP JUNCTIONS” (The Research Foundation of State University of New York, priority 2006, published 2009)
